Data published in the supplement of paper PMC12042874.
± gives the uncertainty stated by the source.

test: amyloid nucleation score (Sup35N fusion, yeast selection) (log enrichment); library NNK1; higher = more nucleation; inactive = no reads after selection
In short: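 DiMSum was used to calculate nucleation scores as log enrichment of output over input reads, centred on the mode score of non-aggregating sequences. Sequences with fewer than 100 input reads were not scored. Input and output came from Illumina sequencing of plasmid inserts in psi-negative yeast expressing peptides of 20 random codons fused to Sup35N, induced 24 hours with 100 μM copper sulfate and then grown 7 days at 30°C on medium lacking adenine and uracil.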

Substance	amyloid nucleation score
IYVYVLSMMCPSEDR	0.201 ± 0.84
KANPDHIPRRLDYRGSGPSR	-0.482 ± 0.94
KASDGLSINRGE	0.48 ± 0.73
KCFRYCKKNSNWLDCRLQIW	-1.26 ± 2.1
KCLIYGKFIVRCVPINV	-0.088 ± 0.59
KCQIGSMVLSYMVELPGDRD	-0.171 ± 0.36
KCTENLFRHCIRLEGSTWKF	-1.34 ± 2.7
KCTWTN	0.255 ± 0.87
KDALDHHLIMLRGYVVLQS	-0.891 ± 0.59
KDEGLTEVFESWISWGW	-0.065 ± 0.9
KDIEYCASMCESCPYMT	2.86 ± 0.39
KDMDSFSTTCLLLRLRGRTG	0.053 ± 0.35
KDRWTCSFVAVCMRYLFAKS	0.134 ± 0.46
KEGLRDGLLCRYQTCAG	0.091 ± 0.48
KEIINGCRR	5 ± 0.1
KELPSSSTCLKFS	-0.155 ± 0.44
KESECITS	-0.849 ± 0.75
KFFEFLYKFDPCRRYCRLCQ	0.264 ± 0.36
KFNITFVSVKSYKVPLSLDI	4.81 ± 0.066
KFRMCEFSGAYTYGVFKNLP	0.834 ± 0.26
KFRSEGWIGCESVIKW	4.72 ± 0.078
KFSSKFTSG	0.436 ± 0.37

Substance	amyloid nucleation score
KFVYSVGMTLSSGSFSVEIF	5.02 ± 0.053
KGAIPFSSDCGGLSGLILYC	0.301 ± 0.54
KGANADAYGRGYNAVFMLEW	-1.39 ± 1.2
KGDMWMGPNESWVKVNLYRV	0.039 ± 0.55
KGISVTCEGK	1.24 ± 0.79
KGLGGFLSICNSVVVRQVWR	0.098 ± 0.72
KHPEM	1.43 ± 0.38
KIFERRLSMYRSVSFLSRQC	0.15 ± 0.32
KIGRGRSNAVLLLAEDVYVG	-0.57 ± 1.2
KIPLNRIAVNASLRQRYCNP	0.122 ± 0.27
KIRVILYVPRVS	1.76 ± 0.51
KITSEPTKFYMGVCPSRSEL	-0.112 ± 0.44
KKRSFLGYFVSLAFYNCYQY	2.73 ± 0.075
KKSYCYPFPFFSYV	0.423 ± 0.65
KKTGVVGVYK	-1.26 ± 1.1
KKVSLRLSSAVILSANSAML	-0.258 ± 0.54
KLDVSLKKYLD	0.368 ± 0.31
KLGGFVFGANVCCEDLSYEF	0.984 ± 0.55
KLIFKRSFNRMDLSSLCYFR	-0.471 ± 0.39
KLLIP	-1.17 ± 0.58
KLLSTDNLYVQSYLFEDCNR	-0.544 ± 0.59
KLMVWITFGSWSRVGHWKGI	-0.387 ± 1.2

Substance	amyloid nucleation score
KLNGNINFCFNCGNSGF	7.27 ± 0.046
KLQIPLGQVSLGSKVMKTGV	-1.08 ± 2.4
KLRRSIDTCNVYVWS	-0.593 ± 0.23
KLSRDFRGFYRT	inactive
KLWFVGSLYSGNVQVYVVVP	4.49 ± 0.061
KLWVNNQS	0.198 ± 0.57
KNFYDIKPLYALYSENLRLH	0 ± 0.46
KNMAYHDSLDSVYPAVG	0.32 ± 0.57
KNQKMVYTRIGLPGFG	-0.42 ± 0.56
KPLLTQQK	-0.356 ± 0.54
KQECQYCWSG	-1.15 ± 0.36
KRFTRTNILRMTCT	0.901 ± 0.48
KRLRTKFYVVLYFSYMSSTL	-1.52 ± 1.5
KRLTMVVRGKLSVLHP	3.74 ± 0.12
KRSKN	1.37 ± 0.8
KRSSFYHWQWHGKSL	-0.718 ± 0.51
KRVIAMLTLIFG	0.534 ± 0.64
KSAEIKEQCTTWFMYTMLGA	-0.785 ± 0.44
KSDRIKLYNKCWELAVLMKK	-0.555 ± 1.1
KSGLRTLFSGVGHCWDALVY	0.198 ± 0.45
KSGVRYNRGRKYASTQ	-0.302 ± 0.39
KSLENDHIVSVCSFLISRTR	3.97 ± 0.081

Substance	amyloid nucleation score
KSLVKYKWNLTFILY	inactive
KSSCRDLIVDVNTGE	0.765 ± 0.38
KSTSRPCHWIYWMWMVYPRY	0.445 ± 0.81
KSWWNDVFVYVYQILEFHCR	0.032 ± 1.2
KTASLRRVG	-0.071 ± 0.32
KTLRNNLLFIQSTPK	0.1 ± 0.28
KTRSNMNFHCS	0.195 ± 0.6
KTSCQSFVGR	-0.403 ± 0.54
KTVVSELSVVNEVVA	-0.359 ± 0.31
KVAHCCSDMYSWRVGKMMSM	0.024 ± 0.79
KVCAVTM	0.095 ± 0.3
KVFVSALCC	4.19 ± 0.067
KVGHANVADFPIWRRNLFG	-0.544 ± 0.84
KVGLDIWGASGTN	0.525 ± 0.48
KVGLSMKYRPYS	2.29 ± 0.22
KVHTGTSTRLKLYMHSTLRT	0.454 ± 0.25
KVIFYEFPTSQRFMGSMYDM	1.88 ± 0.19
KVSEDMYSHFQQSFSQAIIV	inactive
KVTLNFRSHSLENCDAYNKY	3.15 ± 0.12
KVYYRVKMHYSLAGEARTDT	0.621 ± 0.84
KWCISKSFFVYPTMMR	0.437 ± 0.44
